# Measured values reported in patent US20170355757A1 (Regeneron, published 2017).
# B1: H4H12167P (antibody, human IgG4, V domains shown)
# VH: QVQLVESGGGLVKPGGSLRLSCAASGFTFSDSYMSWIRQAPGKGLEWISYIGSSGNTFYYADSVKGRFTISRDNANNLLYLQMTSLRAEDTAVYYCAREEGDFWSAVDSWGQGTLVTVSS
# VL: DIQLTQSPSFLSASVGDRVTITCWASQGISSYLAWYQQKPGKAPKLLIHTASTLQSGVPSRFSGSGSGTEFTLTISNLQPEDFATYYCQQLNSYPFTFGPGTKVDIK
# notes: Human IgG4 Fc with S108P hinge mutation (H4H)
# B2: H4H12159P (antibody, human IgG4, V domains shown)
# VH: QVQLVESGGGVVQPGRSLRLSCGASGFTFSTYGMHWVRQAPGKGLEWVAVIWDDGNNKYYADSVKGRFTISRDNSKNTLYLQMNSLRAEDTAVYYCARDSEVAPVGDYWGQGTLVTVSS
# VL: DIQMTQSPSTLSASVGDRVTIICRASQSINRWLAWYQQKPGKAPKLLIYKASSLESGVPSRFSGSGSGTEFTLTISSLQPDDFAAYYCQQYNDYSYTFGQGTKLEIK
# notes: as for B1
# B3: H4H12164P (antibody, human IgG4, V domains shown)
# VH: EVQLVESGGGLVRSGGSLRLSCAASGFTFNRYAMTWVRQAPGKGLEWVSAISGSGSSTYYTDSVKGRFTISRDNSKNSVDLQMHSLRVEDTAIYYCARGTTVTTGYGMDVWGQGTTVTVSS
# VL: DIQMTQSPSSLSASVGDRVTFTCQASQDITNSLNWYQQKPGRAPKLLIYDASYLKAGVPSRFSGSGSGTDFTFTISSLQPEDIATYYCQQYDDLPYTFGQGTKLEIK
# notes: as for B1
# B4: H4H12175P (antibody, human IgG4, V domains shown)
# VH: EVQLVESGGGVVQPGGSLRLSCAASGFTFNDYAMHWVRQAPGKGLEWVSLISGDGGNTYYADSVKGRLTISRDNSKNSLYLQMNSLRTEDTALYYCAKDKGWNFGYFDLWGRGTLVTVSS
# VL: DIQMTQSPSSLSTSVGDRVTITCRASQNIDTYLNWYQQKPGKAPKLLIYDASSLQSGVPSRFSGSGSGTDFTLTITSLQPEDFATYYCQQNDNILHPLTFGGGTKVEIK
# notes: as for B1
# Target: T1, human C5 R885C-mmh (human, UniProt P01031 19-1676)
# T1 construct: also called human C5 variant R885C
# Assay: SPR, mAb captured via anti-hFc, 37C
# Summary of the method: (§1)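 KD from kd/ka, obtained by 1:1 fitting of Biacore sensorgrams; C5 analytes flowed over anti-C5 mAbs held by immobilized anti-hFc antibody. Running buffer HBST pH 7.4 with EDTA and P20; 3 min association, 8 min dissociation.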
Binder,100 nM Human C5 R885C-mmh Bound (RU),Kd [nM],koff [s⁻¹],kon [M⁻¹ s⁻¹],t1/2 [min]
B1,64,3.64,0.00249,684000,5
B2,68,1.74,0.000975,561000,12
B3,64,5.85,0.00104,177000,11
B4,4,159,0.0179,112000,1

# Target: T2, monkey C5-mmh (monkey, UniProt P01031 19-1676 (human entry), limits assumed)
# T2 construct: Recombinant monkey C5 with a C-terminal myc-myc-hexahistidine tag
# T2 chain: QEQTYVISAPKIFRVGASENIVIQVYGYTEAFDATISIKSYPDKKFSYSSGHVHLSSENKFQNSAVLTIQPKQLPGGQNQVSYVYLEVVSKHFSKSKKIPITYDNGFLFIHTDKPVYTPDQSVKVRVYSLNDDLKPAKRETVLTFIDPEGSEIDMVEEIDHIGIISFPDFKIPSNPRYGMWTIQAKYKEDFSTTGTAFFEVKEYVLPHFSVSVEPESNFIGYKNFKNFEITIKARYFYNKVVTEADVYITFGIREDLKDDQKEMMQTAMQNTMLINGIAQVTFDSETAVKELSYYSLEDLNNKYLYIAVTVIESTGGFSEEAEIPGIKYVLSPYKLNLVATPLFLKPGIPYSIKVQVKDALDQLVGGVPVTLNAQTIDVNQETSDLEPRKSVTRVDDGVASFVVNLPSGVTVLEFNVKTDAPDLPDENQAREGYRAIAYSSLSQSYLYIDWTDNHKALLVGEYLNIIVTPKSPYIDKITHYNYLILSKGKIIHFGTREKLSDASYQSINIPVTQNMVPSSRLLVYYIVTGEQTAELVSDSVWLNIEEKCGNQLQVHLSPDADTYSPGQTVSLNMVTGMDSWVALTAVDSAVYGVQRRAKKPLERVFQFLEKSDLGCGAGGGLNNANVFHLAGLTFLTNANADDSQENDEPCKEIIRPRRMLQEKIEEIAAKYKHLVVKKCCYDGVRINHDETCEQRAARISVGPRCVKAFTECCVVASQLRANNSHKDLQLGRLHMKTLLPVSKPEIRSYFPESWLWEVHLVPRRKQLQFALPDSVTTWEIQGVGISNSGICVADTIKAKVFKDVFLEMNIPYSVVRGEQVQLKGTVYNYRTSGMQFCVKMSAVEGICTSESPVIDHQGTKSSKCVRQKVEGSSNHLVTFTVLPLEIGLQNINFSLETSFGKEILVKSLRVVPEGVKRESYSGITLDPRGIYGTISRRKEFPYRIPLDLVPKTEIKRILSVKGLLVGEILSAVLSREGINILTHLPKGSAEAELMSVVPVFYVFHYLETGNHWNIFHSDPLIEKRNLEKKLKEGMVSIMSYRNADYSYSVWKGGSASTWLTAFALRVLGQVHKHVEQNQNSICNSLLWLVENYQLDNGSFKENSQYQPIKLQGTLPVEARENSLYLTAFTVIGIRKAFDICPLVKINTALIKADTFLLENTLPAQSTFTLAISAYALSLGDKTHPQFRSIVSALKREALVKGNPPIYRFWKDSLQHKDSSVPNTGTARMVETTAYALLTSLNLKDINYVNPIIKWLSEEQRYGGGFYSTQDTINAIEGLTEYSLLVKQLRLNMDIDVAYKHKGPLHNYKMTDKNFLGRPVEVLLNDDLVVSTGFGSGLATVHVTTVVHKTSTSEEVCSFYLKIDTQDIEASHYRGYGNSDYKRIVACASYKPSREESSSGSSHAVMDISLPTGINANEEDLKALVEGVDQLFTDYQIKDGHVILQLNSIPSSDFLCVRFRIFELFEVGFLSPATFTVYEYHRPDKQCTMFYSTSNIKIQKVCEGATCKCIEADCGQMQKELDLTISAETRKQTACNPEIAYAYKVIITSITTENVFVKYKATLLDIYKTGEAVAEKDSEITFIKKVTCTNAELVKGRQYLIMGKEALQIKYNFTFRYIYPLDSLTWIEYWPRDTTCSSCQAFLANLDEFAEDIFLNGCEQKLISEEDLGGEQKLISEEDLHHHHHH
# Assay: SPR, mAb captured via anti-hFc, 37C
# Summary of the method: as §1
Binder,100 nM monkey C5-mmh Bound (RU),Kd [nM],koff [s⁻¹],kon [M⁻¹ s⁻¹],t1/2 [min]
B1,146,0.539,0.000289,537000,40
B2,137,0.133,5.5e-05,412000,210
B3,99,6.3,0.00117,186000,10
B4,74,15.6,0.00276,177000,4

# Target: T3, human C5 R885H-mmh (human, UniProt P01031 19-1676)
# T3 construct: also called human C5 variant R885H
# Assay: SPR, mAb captured via anti-hFc, 37C
# Summary of the method: as §1
Binder,100 nM Human C5 R885H-mmh Bound (RU),Kd [nM],koff [s⁻¹],kon [M⁻¹ s⁻¹],t1/2 [min]
B1,65,2.91,0.00257,881000,5
B2,82,1.49,0.000948,638000,12
B3,68,5.46,0.00106,195000,11
B4,30,69.4,0.0095,137000,1

# Target: T4, human C5 (human, UniProt P01031 19-1676)
# T4 construct: Bought human C5 (EMD #204888, said elsewhere to be purified from plasma); also called hC5; complement component 5
# Assay: SPR, mAb captured via anti-hFc, dissociation at pH7.4 vs pH6.0, 25C
# Summary of the method: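 Anti-C5 mAbs (human IgG4 Fc) captured on an amine-coupled mouse anti-human Fc surface; recombinant C5 dissociation followed by Biacore T200 in PBS-T (0.01M phosphate, 0.15M NaCl, 0.05% Tween-20) at pH7.4 or pH6.0. Dissociative half-life (t½) calculated from kd.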
row,Binder,t1/2 Ratio pH7.4/pH6.0
1,B1,0.6
2,B2,≤ 0.3
3,B3,0.3
4,B4,0.9

# Target: T1, human C5 R885C-mmh
# Assay: SPR, mAb captured via anti-hFc, 25C
# Summary of the method: as §1
Binder,100 nM Human C5 R885C-mmh Bound (RU),Kd [nM],koff [s⁻¹],kon [M⁻¹ s⁻¹],t1/2 [min]
B1,163,0.413,0.000294,711000,39
B2,168,0.289,0.000169,586000,68
B3,249,1.19,0.000182,153000,63
B4,128,190,0.0155,81800,1

# Target: T3, human C5 R885H-mmh
# Assay: SPR, mAb captured via anti-hFc, 25C
# Summary of the method: as §1
Binder,100 nM Human C5 R885H-mmh Bound (RU),Kd [nM],koff [s⁻¹],kon [M⁻¹ s⁻¹],t1/2 [min]
B1,187,0.433,0.000298,689000,39
B2,177,0.25,0.000176,706000,66
B3,295,1.19,0.000187,158000,62
B4,207,10.9,0.00198,181000,6
